This note sets out measurements from patent US20070015230A1 (AMERICAN NATIONAL RED CROSS, published 2007).

The assay deals with T1, Human CRP (Novagen) (human, UniProt P02741 19-224).
T1 construct: also called C-reactive protein
T1 sequence (looked up): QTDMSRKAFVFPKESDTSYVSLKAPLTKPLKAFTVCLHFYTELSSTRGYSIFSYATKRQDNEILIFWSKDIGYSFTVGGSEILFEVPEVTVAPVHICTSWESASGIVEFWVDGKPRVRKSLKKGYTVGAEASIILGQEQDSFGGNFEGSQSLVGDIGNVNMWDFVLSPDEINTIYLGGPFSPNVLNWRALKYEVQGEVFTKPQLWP
Nature of the assay: Bead Blot of library beads loaded from CRP-spiked whole blood, detected with an anti-CRP antibody, confirmed by re-incubation.

B1: Gly-Asn-Gln-Lys-Trp-Gly (SEQ ID NO: 2), hexamer peptide ligand on a Toyopearl 650 M amino library bead (peptide)
peptide: GNQKWG
notes: also called CRP ligand
On to B1, for which the binding result was “binds”.
